Experimental data as given in article PMC13006735 (Research, 2026).

Columns and labels:
[1] = molecular target: T1, Sudan virus (SUDV) glycoprotein GP (Sudan ebolavirus, strain  for …, UniProt Q7T9D9); assay: SPR; conditions: both partners purified
[2] = molecular target: T1, Sudan virus (SUDV) glycoprotein GP; assay: cell-based or functional assay

Binder | Kd [1] [nM] | IC50, neutralisation of SUDV GP pseudovirus (luciferase, Huh7 cells) [2] [µg/mL]
ADI-15946 (antibody, V domains shown, also called wild-type ADI-15946; parental antibody) VH: EVQLVESGGGLVKPGGSLRLSCAASGFTFSNAWMSWVRQAPGKGLEWVGRIKSKTDGGTIDYAAPVKGRFTISRDDSKNTVYLQMTSLKTEDTAVYYCTTYTEDMRYFDWLLRGGETFDYWGQGTLVTVSS VL: DIRLTQSPSSLSASVGDRVTITCRASHYISTYLNWYQQKPGKAPKLLIYAASNLQSGVPSRFSGSGFGTDFSLTISSLQPEDFATYHCQQSYSTPGRYTFGQGTKVEIK | 2.24 | 9.16
 (antibody, V domains shown, also called H27Q/S52Y/G66R-LC variant) VH: EVQLVESGGGLVKPGGSLRLSCAASGFTFSNAWMSWVRQAPGKGLEWVGRIKSKTDGGTIDYAAPVKGRFTISRDDSKNTVYLQMTSLKTEDTAVYYCTTYTEDMRYFDWLLRGGETFDYWGQGTLVTVSS VL: DIRLTQSPSSLSASVGDRVTITCRASQYISTYLNWYQQKPGKAPKLLIYAAYNLQSGVPSRFSGSRFGTDFSLTISSLQPEDFATYHCQQSYSTPGRYTFGQGTKVEIK |  | 0.08
 (antibody, V domains shown, also called A50Y/S52Y/L54R-LC variant) VH: EVQLVESGGGLVKPGGSLRLSCAASGFTFSNAWMSWVRQAPGKGLEWVGRIKSKTDGGTIDYAAPVKGRFTISRDDSKNTVYLQMTSLKTEDTAVYYCTTYTEDMRYFDWLLRGGETFDYWGQGTLVTVSS VL: DIRLTQSPSSLSASVGDRVTITCRASHYISTYLNWYQQKPGKAPKLLIYYAYNRQSGVPSRFSGSGFGTDFSLTISSLQPEDFATYHCQQSYSTPGRYTFGQGTKVEIK |  | 0.22
